# Measurements: patent US20080274978A1 (POSTECH FOUNDATION, published 2008)
# Where no end group is shown, it is not given here. [ ]: non-standard residue; d: D form.
# T1: Formyl peptide receptor like 1 (FPRL1) (human, UniProt P25090 1-351)
# T1 sequence (looked up): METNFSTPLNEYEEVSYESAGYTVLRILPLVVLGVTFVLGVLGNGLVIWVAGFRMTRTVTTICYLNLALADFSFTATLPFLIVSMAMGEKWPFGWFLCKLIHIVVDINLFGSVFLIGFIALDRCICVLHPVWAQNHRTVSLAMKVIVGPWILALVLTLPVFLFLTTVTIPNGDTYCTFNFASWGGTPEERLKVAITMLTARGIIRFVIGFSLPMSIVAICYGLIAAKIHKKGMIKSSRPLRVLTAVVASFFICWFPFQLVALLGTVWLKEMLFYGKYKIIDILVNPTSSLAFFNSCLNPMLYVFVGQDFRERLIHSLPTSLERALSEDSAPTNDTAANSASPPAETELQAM
# Molecular target: T1, Formyl peptide receptor like 1 (FPRL1)
# Assay: cell-based or functional assay
row,"antagonistic activity on intracellular calcium concentration increase, relative to WRWWWW (SEQ ID NO:4) [times]",Binder
1,~100,[dW]WRWWM (not fully specified; printed as wWRWWM) [wWRWWM]

# Molecular target: T1, Formyl peptide receptor like 1 (FPRL1)
# Assay: cell-based or functional assay
# Remark: another data set of the same source
row,Binder,Ca^2+ (FPRL1) IC50 [nM]
1,WWWWW[dW] [WWWWWw],> 10000
2,WRWW,> 10000
3,WWWWWM,130
4,LWWWWW,500
5,WWWWRW,2700
6,WWWWMR,5700
7,WWWWWW,> 10000
8,LRWWWW,1100
9,WRW,> 10000
10,RWWW,600
11,[dW]WRWWW [wWRWWW],110
12,WWWRWW,470
13,WWRWWW,58
14,WWWM,5900

# Continued, values first:
row,Ca^2+ (FPRL1) IC50 [nM],Binder
1,83,WWRWWM
2,220,WWWWWR
3,650,RWWM
4,> 10000,WWW[dW] [WWWw]
5,860,WWWW
6,8.2,[dW]WRWWM (not fully specified; printed as wWRWWM) [wWRWWM]
7,1000,"WRWWWW-NH2 [Trp-Arg-Trp-Trp-Trp-Trp-CONH2 (WRWWWW, WRW^4)]"
8,> 10000,RWW[dW] [RWWw]
9,> 10000,WRRWWW

# Molecular target: T1, Formyl peptide receptor like 1 (FPRL1)
# Assay: displacement of 125I-WKYMVm (50 pM) from FPRL1-expressing RBL-2H3 cells
# Description: Ligand binding analysis was performed as previously described (24). Briefly, FPR-expressing RBL-2H3 cells were seeded at 1×10⁵ cells per well into a 24 well plate and cultured overnight. […] The samples were then washed 5 times with ice-cold binding buffer, and 200 μl of lysis buffer (20 mM Tris, pH 7.5, 1% Triton X-100) was added to each well. After 20 min at room temperature, the lysates were collected and counted using a γ-ray counter (24).
row,IC50 [nM],Binder
1,2400,"RRWWWW-NH2 [Arg-Arg-Trp-Trp-Trp-Trp-CONH2 (RRWWWW, RRW^4)]"
2,3200,"RHWWWW-NH2 [Arg-His-Trp-Trp-Trp-Trp-CONH2 (RHWWWW, RHW^4)]"
3,230,"WRWWWW-NH2 [Trp-Arg-Trp-Trp-Trp-Trp-CONH2 (WRWWWW, WRW^4)]"
4,3400,"DRWWWW-NH2 [Asp-Arg-Trp-Trp-Trp-Trp-CONH2 (DRWWWW, DRW^4)]"
